Experimental findings from patent US20160017295A1 are described below.

Holding throughout (assay): cell-based or functional assay
The target of assay [1] is wild-type AAV2 capsid (recombinant AAV-GFP vector) (AAV2 (adeno-associated virus type 2)) (UniProt P03135).
For assay [2], the target named is SM 100-10 variant AAV capsid (Adeno-associated virus 2 (isolate Srivastava/1982) (AAV-2)) (UniProt P03135).
Assay [3] addresses wild-type AAV1 capsid (recombinant AAV-GFP vector) (AAV1 (adeno-associated virus type 1)).
The target of assay [4] is SM 10-2 variant AAV capsid (Adeno-associated virus 2 (isolate Srivastava/1982) (AAV-2)) (UniProt P03135).
The target of assay [5] is wild-type AAV8 capsid (recombinant AAV-GFP vector) (AAV8 (adeno-associated virus type 8)).
Assay [6] has as its target SM 10-8 variant AAV capsid (Adeno-associated virus 2 (isolate Srivastava/1982) (AAV-2)) (UniProt P03135).
Assay [7] deals with Variant 1.45 (AAV2 capsid with N312K, N449D) (AAV2 (adeno-associated virus type 2)) (UniProt P03135).
For assay [8], the target named is variant γ4.3 (AAV2 capsid with N312K, N449D, N551S, I698V) (AAV2 (adeno-associated virus type 2)) (UniProt P03135).
For assay [9], the target named is SM 100-3 variant AAV capsid (Adeno-associated virus 2 (isolate Srivastava/1982) (AAV-2)) (UniProt P03135).

As for “human IVIG (Gamimune N, 10% Human IVIG, Bayer)”, the Fold Resistance Relative to AAV2 in [1] was found to be 1 fold; in assay [2], 4.39 fold; in [3], 1.76 fold; in assay [4] it was 7.52 fold; in assay [5] it was 6.11 fold; in assay [6] it was 3.41 fold. This substance came in with a Fold Resistance Relative to AAV2 in assay [9] of 4.94 fold. Besides, the Neutralizing IVIG concentration mg/ml (reduces gene delivery efficiency to 50%) in assay [1] worked out at 0.015 mg/mL; in [2] it was 0.066 mg/mL; in [3] it was 0.026 mg/mL; in assay [4] it was 0.113 mg/mL; in assay [5] it was 0.092 mg/mL; in [6] it was 0.051 mg/mL. The Neutralizing IVIG concentration mg/ml (reduces gene delivery efficiency to 50%) in [9] worked out at 0.074 mg/mL. For the same substance, the enhanced resistance to IVIg compared to wild-type AAV2 in assay [7] stood at 1.23 fold; in [8], 3.1 fold.
